Assay results as given in the supplement of paper PMC12764529.
± gives the half width of the 95% confidence interval.

experiment: folding stability dG unfold (combined trypsin and chymotrypsin); higher = more stable
Summary of the method: (§1)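 Designed mini-proteins with no cysteine and under 80 residues were kept only if AlphaFold2 dimer inter-PAE was above 15. In a PA-tagged cDNA display construct, they were digested with trypsin and chymotrypsin and then sequenced. K50 was inferred by Bayesian fitting of counts, and unfolding free energy was derived per protease or combined against a sequence-predicted unfolded-state K50 and a shared folded-state K50.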

Sequence | folding stability dG unfold
SAGGSAGGSKTVEITITRKDGKKLKIEFYPDGYIKIYDSNGKLVKTIKVDPNASIEEILKALKSAGGSAGGS [r12_990_TrROS_Hall] | 3.39 ± 0.083 kcal/mol
SAGGSAGGSAGGMSITFTAPDGSKITATIDPDGNVLVEVHLGDKPYYVKGPVETLLKNAPSAGGSAGGSAGG [r7_178_TrMRF] | 0.719 ± 0.07 kcal/mol
SAGGSAGGSAGGKKTINVEIVKIEVTKNKKTNEYTVKIYIKDTGKTITLTVKPGDIIKISAGGSAGGSAGGS [r10_819_TrROS_Hall] | 3.1 ± 0.21 kcal/mol
SAGGNINDIAKKLGLPPGGMIMIKDFSLEWHRMPMRVPEEDNDKPKEEKEVPMPMYKAEIKISLFPADSAGG [r13_482_TrROS] | 1.52 ± 0.22 kcal/mol
SAGMTIEELRSLPPGARVTSVEYDEETEEVTVTVERTREDGKTETLTLTFRSREELEAALKAGADRIVFSAG [r5_905_TrROS_Hall] | 1.54 ± 0.052 kcal/mol
SAGGSAGGSYWFSITFKINFWVIDGNRIHPVPIEITILIKIPPIPPDEMKPEPTPDGEPKYDFSAGGSAGGS [r12_1031_TrROS] | 4.29 ± 0.23 kcal/mol
SAGSWIDKLPPSFTSSSPLAKRPDGTRVYAYEYTTESSPSILLVEFDASGRLRKIEKLDPETAAKAIAASAG [r5_73_JUSTAS] | 1.22 ± 0.11 kcal/mol
SAGMTIELPNATVTLERVPVPATGESAWVVTVTARHPDGSTPTVVAVFPEDTPPEDVLAAALALAEELESAG [r5_704_TrMRF] | 4.78 ± 0.16 kcal/mol
SAGGSAGGSAGGAPAAVESVEPLKIGDKEYLRITFPDGTTVTLPSSTPLSPDGQKLKPVPSAGGSAGGSAGG [r7_931_JUSTAS] | 0.628 ± 0.033 kcal/mol
SAGGSAGGSASMKEVTILVKKKLPGGEEEESVTTVTLNPNEIDKVKEEFKKKGWEVVKVVSSAGGSAGGSAG [r3_453_JUSTAS] | 1.56 ± 0.045 kcal/mol
SAGGTLEEFARDLAKELAKENGGKNVPFEIEIPVKMEWYPSPDGDPEPIMTHPMRIRIQFQIPPGQPSAGGS [r16_156_TrROS] | 1.08 ± 0.15 kcal/mol
SAGGSAGGMFYVVRLEGPDGPLRTLVRPAESLEEARAFAEALAPEGARVTVEPLEEEEAERLLGSAGGSAGG [r6_267_TrMRF] | 2.13 ± 0.065 kcal/mol
SAGGSAGGDPGDDYKIGVFPFTFLFGGYRISIPIFRITKDGKPQHIFMAIEIEPLPPPKDPGDNSAGGSAGG [r6_684_TrROS] | 3.71 ± 0.15 kcal/mol
SAGGPVFEVTPEVDPDTDLVTYTVRVPADVDFAAVAKALETEFADGSRAEVKPLPDGTVVVVVRLPASAGGS [r8_255_TrMRF] | 0.942 ± 0.059 kcal/mol
SAGMLKVKIKIEIEKDGKKIELEKEIEAESEEELLKAAEELAKELEKKGIKIKKIEVEVEKIPEPEEEESAG [r5_660_TrROS_Hall] | 2.5 ± 0.12 kcal/mol
SAGGSPHVSTDAADPELAARLLREAFGTDEVPLVRRDPTTGALLAFLPATGRLVWTDRTTVRVEPSSAGGSA [r2_205_TrMRF] | 0.13 ± 0.074 kcal/mol
SAGGSASVTTTVTLPNGEVVTITFDPANPTTATLSFPDGTTVTLSFSSPEEALARAIEELLAGKPLSAGGSA [r15_38_JUSTAS] | 2.48 ± 0.081 kcal/mol
SAGGSAGGSAGGIKDVKITEFERHPENNWYEVKISIPNGKPVEIPMNPGQSAEDILDQISAGGSAGGSAGGS [r10_984_TrROS] | 0.421 ± 0.2 kcal/mol
SAGGSAGGSAGMKIEVFPNTIKIYPENGKVLTFEAPDFGEEAIKEIAKAFPNAKIEPVEPSAGGSAGGSAGG [r17_545_TrMRF] | -0.189 ± 0.25 kcal/mol
SAGGSAGGSMNVPPGESVTVTVPPGTGLEWLRAQLPSSRTWDFATFVSENPSPPVTTYEITVGSAGGSAGGS [r12_469_JUSTAS] | 1.76 ± 0.11 kcal/mol
SPVKWGEEKTYTYPFPDNPNYRIKIKVHVYKDPENGRPYVRMNIEVYNNGKPRKYNINMPVDQLKDLLQFSA [r9_71_TrROS] | 2.57 ± 0.21 kcal/mol

Sequence | folding stability dG unfold
SMTLPANAKAKVTVLVLFYDPETGEATLVKVDYTATFKPDDKGNLVVEVEPSKIEFIGPISLEEAKKIAGSA [r9_423_TrMRF] | 2.55 ± 0.21 kcal/mol
SAGGSAGGSASMTVVVEREEITRRDPSSDELFEEEVVRATTTEKDGVIETTTLPEEEWEKLSSAGGSAGGSA [r18_406_JUSTAS] | -0.0202 ± 0.32 kcal/mol
SAGWKIKLENIEFFPNGRIRVMFEIEDPNGRPWRVQAQFDPDNPGKIKIKVENPDNGQEQEITFTIKPPSAG [r5_345_TrROS] | 3.83 ± 0.24 kcal/mol
SAGGSSSSTSTRIDPTTGEWVTSTSSFPVPPAPPYIEVRLDVPPEEAEALREKLLAEHPDLPVRLEASAGGS [r8_437_JUSTAS] | 0.636 ± 0.072 kcal/mol
SAGGMTLEELAARVGRVEVEEAEDGGRVLRVTIPLAGPGGPPAPRTFLIEIPPDRPDLTIAEVLARLGSAGG [r13_319_TrMRF] | 1.66 ± 0.07 kcal/mol
SAGGSMTEEERRALAEEIAKEVAEKISEEEGIPVKEILSIEVHPDGSVTITIKFPGTEGERTITIPRSAGGS [r16_622_JUSTAS] | 2.27 ± 0.19 kcal/mol
GRMYIVKIEIKVKRRDPEEGETRERKLEVHVIFPPNDPDALEKADEIARNLAEEDGITDVKVKIYPIRLPDS [r1_346_TrROS] | 1.74 ± 0.22 kcal/mol
SEPLTPEEVEKFAEWIAKELNEEHGKEVKVEVEYHPDDGYFRAEIEIPNGRRIEITFNPEFGQLDIEVEDSA [r9_9_TrROS] | 1.71 ± 0.27 kcal/mol
SAGGMSVTVSTHLSPEELRELVREIVEKNPGLEVKAVEVTDPATGEWRAVPLDEVPADRPVTVRVDLSRSAG [r5_357_JUSTAS] | 0.495 ± 0.12 kcal/mol
SAGGSAGGGKSFSIPVDDAVILDYDPVTKRLTILLPGPGVELVLPLDKVKRIEIDPETGTIHVESAGGSAGG [r6_313_TrMRF] | 1.64 ± 0.073 kcal/mol
SAGGSAGGMKTTTYTFPGTLEEAKALAEELVAALPPHAKEVTVEVTPDPATGTVTVTITVKELASAGGSAGG [r6_164_JUSTAS] | 3.46 ± 0.13 kcal/mol
SAGGSASAEELAAELARRLAEELGLEVTKVEITEVTPDRVVVRVTVTVTLPNGEKVTRELTLVLEPSAGGSA [r15_276_TrROS_Hall] | 3.05 ± 0.11 kcal/mol
SMTAEEIAERLARALEEAGIRRVEVEVTVEYDPETDEVTVTVTIRVEPAPEAPPEEEEERREREEREAEESA [r9_440_TrROS_Hall] | 2.31 ± 0.11 kcal/mol
SAGGPDNIRIDLKIEPTGDSVKITFPIYNPNGSPIKVEMEYQRVGGKKFFRMKIEFGGRPIELWIPISAGGS [r16_476_TrROS] | 4.7 ± 0.22 kcal/mol
SAGGSAGGGIEPGKKVKAKATLILPGGKPIPFTATFTPDYVTLDLGKGSLTVPVEFIAHLEIEDSAGGSAGG [r6_132_TrMRF] | 1.11 ± 0.053 kcal/mol
SAGGSAGIEVHPEGTVRIEVGGRSLTVTPADAVDVTQEGDKIVVTITRRDADGTPVGTLPVTVELASAGGSA [r15_424_JUSTAS] | 0.52 ± 0.045 kcal/mol
SAGGSAGGSAGGEPIPTKTIEVDEATGTVTVTVTFPPPNETVTVTRPAPPDVSLEEVLASAGGSAGGSAGGS [r10_676_JUSTAS] | 1.59 ± 0.15 kcal/mol
SAGGSAKKPKPVKYNVVITLKDGKTITLTLPFGSLEKAKEFIEKNFPDAIVTYNPKTGNVTVYLPVSAGGSA [r15_313_TrMRF] | 3.16 ± 0.12 kcal/mol
SAGGSAGGPEIKVLEVRKLPDGSFEFIVEVPPGDAEKIKSGTVVKIKFGDKEYDVTVEVIPTEGSAGGSAGG [r6_372_TrMRF] | 2.24 ± 0.045 kcal/mol
SAGGSAGGSGVEITLPNKDELIEYLKKKFAEKGGKIKKIKIEPIGPNMYKALIETDPNDPYFKSAGGSAGGS [r12_647_TrMRF] | 0.611 ± 0.13 kcal/mol
SAGMPVTVTSTSDPENGSTTVPRTHPTGPVVTVTITKLPPGELRVTVDAGTTVTLYTLPPDALTTFTTPSAG [r5_14_JUSTAS] | 0.339 ± 0.11 kcal/mol

experiment: folding stability dG unfold from trypsin proteolysis; higher = more stable
Summary of the method: as §1

Sequence | folding stability dG unfold
SAGGSAGGSKTVEITITRKDGKKLKIEFYPDGYIKIYDSNGKLVKTIKVDPNASIEEILKALKSAGGSAGGS [r12_990_TrROS_Hall] | 3.31 ± 0.12 kcal/mol
SAGGSAGGSAGGMSITFTAPDGSKITATIDPDGNVLVEVHLGDKPYYVKGPVETLLKNAPSAGGSAGGSAGG [r7_178_TrMRF] | 0.325 ± 0.027 kcal/mol
SAGGSAGGSAGGKKTINVEIVKIEVTKNKKTNEYTVKIYIKDTGKTITLTVKPGDIIKISAGGSAGGSAGGS [r10_819_TrROS_Hall] | 1.42 ± 0.064 kcal/mol
SAGGNINDIAKKLGLPPGGMIMIKDFSLEWHRMPMRVPEEDNDKPKEEKEVPMPMYKAEIKISLFPADSAGG [r13_482_TrROS] | 0.955 ± 0.056 kcal/mol
SAGMTIEELRSLPPGARVTSVEYDEETEEVTVTVERTREDGKTETLTLTFRSREELEAALKAGADRIVFSAG [r5_905_TrROS_Hall] | 1.731 ± 0.017 kcal/mol
SAGGSAGGSYWFSITFKINFWVIDGNRIHPVPIEITILIKIPPIPPDEMKPEPTPDGEPKYDFSAGGSAGGS [r12_1031_TrROS] | 2.73 ± 0.15 kcal/mol
SAGSWIDKLPPSFTSSSPLAKRPDGTRVYAYEYTTESSPSILLVEFDASGRLRKIEKLDPETAAKAIAASAG [r5_73_JUSTAS] | 1.19 ± 0.031 kcal/mol
SAGMTIELPNATVTLERVPVPATGESAWVVTVTARHPDGSTPTVVAVFPEDTPPEDVLAAALALAEELESAG [r5_704_TrMRF] | 4.75 ± 0.44 kcal/mol
SAGGSAGGSAGGAPAAVESVEPLKIGDKEYLRITFPDGTTVTLPSSTPLSPDGQKLKPVPSAGGSAGGSAGG [r7_931_JUSTAS] | 0.65 ± 0.042 kcal/mol
SAGGSAGGSASMKEVTILVKKKLPGGEEEESVTTVTLNPNEIDKVKEEFKKKGWEVVKVVSSAGGSAGGSAG [r3_453_JUSTAS] | 1.23 ± 0.017 kcal/mol
SAGGTLEEFARDLAKELAKENGGKNVPFEIEIPVKMEWYPSPDGDPEPIMTHPMRIRIQFQIPPGQPSAGGS [r16_156_TrROS] | 0.389 ± 0.11 kcal/mol
SAGGSAGGMFYVVRLEGPDGPLRTLVRPAESLEEARAFAEALAPEGARVTVEPLEEEEAERLLGSAGGSAGG [r6_267_TrMRF] | 1.07 ± 0.057 kcal/mol
SAGGSAGGDPGDDYKIGVFPFTFLFGGYRISIPIFRITKDGKPQHIFMAIEIEPLPPPKDPGDNSAGGSAGG [r6_684_TrROS] | 3.21 ± 0.093 kcal/mol
SAGGPVFEVTPEVDPDTDLVTYTVRVPADVDFAAVAKALETEFADGSRAEVKPLPDGTVVVVVRLPASAGGS [r8_255_TrMRF] | 1.25 ± 0.023 kcal/mol
SAGMLKVKIKIEIEKDGKKIELEKEIEAESEEELLKAAEELAKELEKKGIKIKKIEVEVEKIPEPEEEESAG [r5_660_TrROS_Hall] | 2.04 ± 0.12 kcal/mol
SAGGSPHVSTDAADPELAARLLREAFGTDEVPLVRRDPTTGALLAFLPATGRLVWTDRTTVRVEPSSAGGSA [r2_205_TrMRF] | 0.325 ± 0.13 kcal/mol
SAGGSASVTTTVTLPNGEVVTITFDPANPTTATLSFPDGTTVTLSFSSPEEALARAIEELLAGKPLSAGGSA [r15_38_JUSTAS] | 2.99 ± 0.1 kcal/mol
SAGGSAGGSAGGIKDVKITEFERHPENNWYEVKISIPNGKPVEIPMNPGQSAEDILDQISAGGSAGGSAGGS [r10_984_TrROS] | -0.418 ± 0.19 kcal/mol
SAGGSAGGSAGMKIEVFPNTIKIYPENGKVLTFEAPDFGEEAIKEIAKAFPNAKIEPVEPSAGGSAGGSAGG [r17_545_TrMRF] | -0.338 ± 0.13 kcal/mol
SAGGSAGGSMNVPPGESVTVTVPPGTGLEWLRAQLPSSRTWDFATFVSENPSPPVTTYEITVGSAGGSAGGS [r12_469_JUSTAS] | 1.16 ± 0.078 kcal/mol
SPVKWGEEKTYTYPFPDNPNYRIKIKVHVYKDPENGRPYVRMNIEVYNNGKPRKYNINMPVDQLKDLLQFSA [r9_71_TrROS] | 2.22 ± 0.039 kcal/mol
